From article PMC10580588

Molecular target: FLAG-tagged full-length senataxin (SETX) (human) (UniProt Q7Z333)
Experiment: co-IP; SETX immunoprecipitated, the IP'd material treated with or without RNase A; bands measured by densitometry; IgG only IP as negative control

Chain of UniProt Q7Z333 (Q7Z333 whole entry): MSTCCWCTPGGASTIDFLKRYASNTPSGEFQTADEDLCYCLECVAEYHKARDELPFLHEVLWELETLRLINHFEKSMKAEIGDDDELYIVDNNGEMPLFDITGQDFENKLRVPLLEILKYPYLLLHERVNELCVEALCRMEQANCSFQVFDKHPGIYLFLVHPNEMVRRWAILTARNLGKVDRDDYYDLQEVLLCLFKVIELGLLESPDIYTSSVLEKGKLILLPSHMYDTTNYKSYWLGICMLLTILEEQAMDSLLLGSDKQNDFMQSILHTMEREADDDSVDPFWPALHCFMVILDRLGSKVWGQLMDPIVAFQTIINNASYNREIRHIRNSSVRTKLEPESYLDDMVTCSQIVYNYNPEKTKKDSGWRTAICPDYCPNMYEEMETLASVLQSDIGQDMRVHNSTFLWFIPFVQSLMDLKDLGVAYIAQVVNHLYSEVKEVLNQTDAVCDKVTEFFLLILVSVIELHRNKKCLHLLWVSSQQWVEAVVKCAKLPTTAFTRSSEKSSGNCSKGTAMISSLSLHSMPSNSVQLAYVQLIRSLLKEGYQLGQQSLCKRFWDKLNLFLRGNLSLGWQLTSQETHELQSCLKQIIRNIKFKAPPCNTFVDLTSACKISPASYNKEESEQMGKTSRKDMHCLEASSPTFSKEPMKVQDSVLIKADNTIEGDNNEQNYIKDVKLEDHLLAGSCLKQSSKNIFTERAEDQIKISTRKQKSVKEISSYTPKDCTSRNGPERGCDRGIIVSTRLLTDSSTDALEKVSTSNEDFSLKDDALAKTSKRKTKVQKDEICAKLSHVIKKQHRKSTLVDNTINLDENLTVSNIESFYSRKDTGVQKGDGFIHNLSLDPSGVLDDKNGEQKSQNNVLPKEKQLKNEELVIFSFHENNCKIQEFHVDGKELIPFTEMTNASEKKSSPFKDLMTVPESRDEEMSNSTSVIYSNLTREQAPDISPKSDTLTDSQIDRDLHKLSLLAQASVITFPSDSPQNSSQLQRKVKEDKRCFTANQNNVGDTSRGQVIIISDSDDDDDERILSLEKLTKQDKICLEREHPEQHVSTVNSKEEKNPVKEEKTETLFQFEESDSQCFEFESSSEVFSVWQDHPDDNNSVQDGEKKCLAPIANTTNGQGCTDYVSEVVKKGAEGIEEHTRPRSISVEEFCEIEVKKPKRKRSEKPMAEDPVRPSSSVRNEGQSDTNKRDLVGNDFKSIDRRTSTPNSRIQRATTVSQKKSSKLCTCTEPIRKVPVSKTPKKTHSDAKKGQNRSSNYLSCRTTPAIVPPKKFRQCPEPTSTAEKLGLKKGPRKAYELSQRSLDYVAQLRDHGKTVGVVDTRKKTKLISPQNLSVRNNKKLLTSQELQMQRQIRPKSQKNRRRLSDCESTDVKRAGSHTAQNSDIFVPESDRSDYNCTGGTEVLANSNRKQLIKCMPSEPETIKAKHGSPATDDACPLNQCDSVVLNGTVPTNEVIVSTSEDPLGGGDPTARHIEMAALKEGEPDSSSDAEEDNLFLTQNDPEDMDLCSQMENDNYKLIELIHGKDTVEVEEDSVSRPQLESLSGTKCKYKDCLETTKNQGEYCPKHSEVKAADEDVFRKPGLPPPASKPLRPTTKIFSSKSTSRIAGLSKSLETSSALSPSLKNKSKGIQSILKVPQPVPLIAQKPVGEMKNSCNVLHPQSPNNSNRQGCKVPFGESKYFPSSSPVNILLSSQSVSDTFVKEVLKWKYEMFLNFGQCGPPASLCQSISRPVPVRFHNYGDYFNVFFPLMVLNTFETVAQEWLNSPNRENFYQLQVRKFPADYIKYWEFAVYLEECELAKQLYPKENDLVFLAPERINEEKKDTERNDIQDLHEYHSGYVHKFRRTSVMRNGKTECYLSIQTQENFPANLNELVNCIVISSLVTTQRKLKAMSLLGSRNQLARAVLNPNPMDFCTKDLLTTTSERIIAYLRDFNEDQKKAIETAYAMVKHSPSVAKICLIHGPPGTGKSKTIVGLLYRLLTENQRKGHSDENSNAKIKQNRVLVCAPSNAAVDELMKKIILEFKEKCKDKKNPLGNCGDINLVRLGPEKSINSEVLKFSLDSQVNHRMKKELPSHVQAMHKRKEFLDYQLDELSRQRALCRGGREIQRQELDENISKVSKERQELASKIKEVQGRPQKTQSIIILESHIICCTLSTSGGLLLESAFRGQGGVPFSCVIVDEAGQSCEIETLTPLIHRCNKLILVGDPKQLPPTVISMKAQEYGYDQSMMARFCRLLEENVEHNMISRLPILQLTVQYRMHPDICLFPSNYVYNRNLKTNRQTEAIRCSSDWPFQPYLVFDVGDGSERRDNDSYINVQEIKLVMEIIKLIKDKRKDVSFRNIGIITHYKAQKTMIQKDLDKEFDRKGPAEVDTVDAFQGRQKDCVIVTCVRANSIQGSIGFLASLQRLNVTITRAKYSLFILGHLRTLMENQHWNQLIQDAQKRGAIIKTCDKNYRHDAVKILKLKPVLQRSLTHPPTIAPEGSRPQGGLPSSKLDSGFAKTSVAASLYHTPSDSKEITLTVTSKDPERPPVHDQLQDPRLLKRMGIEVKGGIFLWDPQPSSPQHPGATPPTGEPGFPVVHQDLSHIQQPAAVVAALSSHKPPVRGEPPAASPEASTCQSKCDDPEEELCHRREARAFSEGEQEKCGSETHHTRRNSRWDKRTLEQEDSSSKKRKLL

**Q.** How did the percent reduction of the co-IP band upon RNase A treatment turn out when GFP-GR30 (peptide) was run?
**A.** 32%
